Data as given in publication PMC3325491 (Structure(London, England:1993), 2012).

Columns and labels:
[1] = target: HPV16 E6N domain (residues 1-80), wild type (HPV16); experiment: NMR titration
[2] = target: the molecule itself; experiment: SEC
[3] = target: the molecule itself; experiment: AUC

HPV16 E6N domain (residues 1-80), wild type (domain or fragment)
Kd [1]: 290 µM

B1: HPV11 MBP-E6N fusion construct (E6N residues 1-81) (domain or fragment)
chain: MESKDASTSATSIDQLCKTFNLSLHTLQIQCVFCRNALTTAEIYAYAYKNLKVVWRDNFPFAACACCLELQGKINQYRHFN
stoichiometry N [2]: 2

B2: HPV18 E6N domain (residues 1-82) (domain or fragment)
chain: MARFEDPTRRPYKLPDLCTELNTSLQDIEITCVYCKTVLELTEVFEFAFKDLFVVYRDSIPHAACHKCIDFYSRIRELRHYS
stoichiometry N [3]: 2
